According to US20140274782A1, “AFFINITY REAGENTS AND METHODS FOR DETECTION, PURIFICATION, AND PROTEOMIC ANALYSIS OF METHYLATED PROTEINS” (The Board of Trustees of the Leland Stanford Junior …, priority 2013, published 2014):

B1: hnRNP D: protein with methylated lysine identified in 3xMBT pull-down (protein, UniProt Q14103 2-355, looked up)
Heterogeneous nuclear …: SEEQFGGDGAAAAATAAVGGSAGEQEGAMVAATQGAAAAAGSGAGTGGGTASGGTEGGSAESEGAKIDASKNEEDEGHSNSSPRHSEAATAQREEWKMFIGGLSWDTTKKDLKDYFSKFGEVVDCTLKLDPITGRSRGFGFVLFKESESVDKVMDQKEHKLNGKVIDPKRAKAMKTKEPVKKIFVGGLSPDTPEEKIREYFGGFGEVESIELPMDNKTNKRRGFCFITFKEEEPVKKIMEKKYHNVGLSKCEIKVAMSKEQYQQQQQWGSRGGFAGRARGRGGGPSQNWNQGYSNYWNQGYGNYGYNSQGYGGYGGYDYTGYNNYYGYGDYSNQQSGYGKVSRRGGHQNSYKPY
B2: TUBB4: protein with methylated lysine identified in 3xMBT pull-down (protein, UniProt P04350 1-444, looked up)
Tubulin beta-4A chain: MREIVHLQAGQCGNQIGAKFWEVISDEHGIDPTGTYHGDSDLQLERINVYYNEATGGNYVPRAVLVDLEPGTMDSVRSGPFGQIFRPDNFVFGQSGAGNNWAKGHYTEGAELVDAVLDVVRKEAESCDCLQGFQLTHSLGGGTGSGMGTLLISKIREEFPDRIMNTFSVVPSPKVSDTVVEPYNATLSVHQLVENTDETYCIDNEALYDICFRTLKLTTPTYGDLNHLVSATMSGVTTCLRFPGQLNADLRKLAVNMVPFPRLHFFMPGFAPLTSRGSQQYRALTVPELTQQMFDAKNMMAACDPRHGRYLTVAAVFRGRMSMKEVDEQMLSVQSKNSSYFVEWIPNNVKTAVCDIPPRGLKMAATFIGNSTAIQELFKRISEQFTAMFRRKAFLHWYTGEGMDEMEFTEAESNMNDLVSEYQQYQDATAEEGEFEEEAEEEVA
B3: SIRT1: NAD-dependent lysine deactylase SIRT1 (protein, UniProt Q96EB6 2-747, looked up)
NAD-dependent protein …: ADEAALALQPGGSPSAAGADREAASSPAGEPLRKRPRRDGPGLERSPGEPGGAAPEREVPAAARGCPGAAAAALWREAEAEAAAAGGEQEAQATAAAGEGDNGPGLQGPSREPPLADNLYDEDDDDEGEEEEEAAAAAIGYRDNLLFGDEIITNGFHSCESDEEDRASHASSSDWTPRPRIGPYTFVQQHLMIGTDPRTILKDLLPETIPPPELDDMTLWQIVINILSEPPKRKKRKDINTIEDAVKLLQECKKIIVLTGAGVSVSCGIPDFRSRDGIYARLAVDFPDLPDPQAMFDIEYFRKDPRPFFKFAKEIYPGQFQPSLCHKFIALSDKEGKLLRNYTQNIDTLEQVAGIQRIIQCHGSFATASCLICKYKVDCEAVRGDIFNQVVPRCPRCPADEPLAIMKPEIVFFGENLPEQFHRAMKYDKDEVDLLIVIGSSLKVRPVALIPSSIPHEVPQILINREPLPHLHFDVELLGDCDVIINELCHRLGGEYAKLCCNPVKLSEITEKPPRTQKELAYLSELPPTPLHVSEDSSSPERTSPPDSSVIVTLLDQAAKSNDDLDVSESKGCMEEKPQEVQTSRNVESIAEQMENPDLKNVGSSTGEKNERTSVAGTVRKCWPNRVAKEQISRRLDGNQYLFLPPNRYIFHGAEVYSDSEDDVLSSSSCGSNSDSGTCQSPSLEEPMEDESEIEEFYNGLEDEPDVPERAGGAGFGTDGDDQEAINEAISVKQEVTDMNYPSNKS
modifications: GST or 3xFlag tag

Assays:
3×MBT domain of L3MBTL1 = experiment: SILAC proteomic pull-down 3×MBT vs 3×MBTD355N from 293T nuclear extract, LC-MS/MS; assay type: binding, human; conditions: SILAC ratio, 293T nuclear extract pull-down; * = protein identified in only one labeling experiment
Protocol: Protein pull-downs were performed as described above using 600 μg of nuclear extract prepared with isotopic labels as indicated. After eluting with glutathione, 3×MBT domain was removed by dialysis into high salt and rebinding to GSH-sepharose. Bound proteins were separated by SDS-PAGE and analyzed by in-gel tryptic digest followed by LC-MS/MS. Peptides were identified using MaxQuant version 1.2.2.5 (Cox and Mann (2008) Nat. Biotechnol. 26, 1367-1372) and candidate methylated peptides were verified by manual inspection.
For stable isotope labeling by amino acids in cell culture (SILAC) experiments HEK 293T cells were grown for at least six doublings in DMEM for SILAC supplemented with 10% dialyzed fetal bovine serum (FBS), 230 mg/L L-proline and either 100 mg/L each of L-lysine and L-arginine (“light” medium), D4-L-lysine and ^13C6-L-arginine (“medium” media), or ^13C6^15N2-L-lysine and ^13C6^15N4-L-arginine (Thermo Scientific). Heavy methyl labeling used DMEM without L-Methionine or L-Cysteine supplemented with D3^13C-L-Methionine (Sigma), L-Cysteine (Sigma) and 10% dialyzed FBS.
600 μg of nuclear extract was incubated overnight rotating at 4° C. with 20 μl packed 3×MBT or 3×MBTD355N beads in a total volume of 250 μL with binding buffer. Supernatant was removed and saved for use as a loading control. Beads were washed 4×5 minutes with 0.5 mL binding buffer. Protein was eluted by incubating in 20 μL elution buffer (10 mg/mL glutathione in 50 mM Tris pH 8.0) rotating at 4° C. for four hours. Elutions from 3×MBT and 3×MBTD355N were combined and dialyzed overnight at 4° C. against 10,000× volume of dissociation buffer (50 mM Tris pH 7.5, 750 mM NaCl) in a 0.1 mL Slide-A-Lyzer MINI Dialysis Device with 3.5K molecular weight cutoff (Thermo Scientific). 80 μL of GSH-Sepharose was prepared by washing briefly three times with 0.5 mL binding buffer. Dialyzed proteins were added to the GSH-Sepharose and incubated 4 hours rotating at 4° C. to deplete the GST-fusion domains. Supernatant was transferred to a fresh 1.5 mL tube. Proteins were separated by SDS-PAGE on a 10% polyacrylamide gel and stained using SilverQuest Silver Staining Kit (Life Technologies). Lanes were excised, residual 3×MBT band was removed, and gel was diced into 0.5 mm cubes. Gel pieces were destained and processed by in-gel digestion (Carlson et al. (2011) Science Signaling 4) with sequencing grade trypsin (Promega) and the peptide sample was dried completely in a vacuum centrifuge. To prepare a loading control, 2 μL each of light and heavy nuclear extract were combined, 6 μL of 8M urea was added, proteins were denatured by adding 2 μL of 100 mM dithiothreitol in digest buffer (50 mM ammonium bicarbonate) and heating to 60° C. for 1 hour, cysteine was alkylated by adding 2.2 μL 100 mg/mL iodoacetamide in digest buffer and incubating 1 hour at room temperature in darkness, and proteins were digested by adding 80 μL trypsin (Promega) at 12.5 ng/μL in digest buffer and incubating overnight at room temperature in darkness. Digestion was stopped by adding 10 μL of 10% formic acid.
Each experiment consisted of two sets of pull-downs: “forward” labeling with 3×MBT incubated with light nuclear extract and 3×MBTD355N with medium extract, and a second “reverse” labeling experiment with the label conditions swapped. Proteins were included in the results if they were quantified in both labeling directions. To determine reproducibility the entire experiment including the label swap was duplicated using independent protein preparations and a mass spectrometer at another institution.
For 3×MBT pull-down experiment #1 the gel lane was processed and peptides were loaded off-line onto a first dimension trap column (Waters Xbridge, C18, 10 μm particle size, 100 Å pore size, 5 cm packing length, 150 μm column i.d.). […]

G9a = biological target: T1, G9a (Homo sapiens, UniProt Q96KQ7); experiment: In vitro methylation reaction with 3H-SAM, autoradiograph; assay type: biochemical; conditions: recombinant SIRT1, recombinant G9a SET domain
T1 construct: in vitro methylation assays on SIRT1 and SIRT1K622R using recombinant G9a SET domain
Protocol: Recombinant GST-SIRT1 was expressed by baculoviral transduction of the Sf9 insect cell line as previously described (Levy et al. (2011) Nat. Immunol. 12, 29-36). A panel of enzymes was tested for ability to methylate recombinant SIRT1 using ^3H-SAM in in vitro methylation reactions (Kuo et al. (2011) Mol. Cell 44, 609-620). SIRT1K622R was generated by site-directed mutagenesis (Stratagene). For the pull-down experiment, 293T cells were transfected with a 10:1 enzyme:substrate DNA ratio. 150 μg of nuclear proteins were used for pull-downs with 3×MBT or 3×MBTD355N coupled GSH-Sepharose as described above.

T1 sequence (Q96KQ7 1038-1155 limits assumed, species assumed): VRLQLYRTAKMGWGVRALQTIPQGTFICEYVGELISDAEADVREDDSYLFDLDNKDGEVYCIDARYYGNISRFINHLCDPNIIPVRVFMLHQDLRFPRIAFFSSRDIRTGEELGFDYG

Molecule | Protein Ratio 3xMBT/D355N (3×MBT domain of L3MBTL1) | in vitro methylation by G9a (G9a)
B1 | 22.5 | –
B2 | 1.9 | –
B3 | – | methylates the NAD-dependent lysine deactylase SIRT1 at lysine 622
